± gives the uncertainty stated by the source.

B1: Integrator complex subunit 12, residues 155 to 213; numbered along this chain, Q96CB8 (parent)
chain: AMEMGLACVVCRQMMVASGNQLVECQECHNLYHRDCHKPQVTDKEANDPRLVWYCARCT

In this data set the parent is B1. The data set is described as follows: abundance fitness (aPCA) (normalised: wild type 0, dead -1); higher = more abundant; growth selection in yeast, the domain comes from the species named. The conditions noted are these: Homo sapiens.
Regarding AMEMGLACVVCRQMMVASGNQLVECQECHNLYHRDCHKPQVTDKEANDPRLVWGCARCT [Y54G], the abundance fitness was -0.187 ± 0.049. As for AMEMGLACVVCRQMMVASGNQLVECQECHNLYHRDCHKPQVTDKEANDPRLVWQCARCT [Y54Q], the abundance fitness worked out at 0.027 ± 0.065. Under AMEMGLACVVCRQMMVASGNQLVECQECHNLYHRDCHKPQVTDKEANDPRLVWECARCT [Y54E] stands -0.069 ± 0.047; under AMEMGLACVVCRQMMVASGNQLVECQECHNLYHRDCHKPQVTDKEANDPRLVWPCARCT [Y54P], -0.35 ± 0.059.

As to AMEMGLACVVCRQMMVASGNQLVECQECHNLYHRDCHKPQVTDKEANDPRLVWACARCT [Y54A], the abundance fitness was -0.093 ± 0.047. Under AMEMGLACVVCRQMMVASGNQLVECQECHNLYHRDCHKPQVTDKEANDPRLVWLCARCT [Y54L] stands 0.026 ± 0.046; under AMEMGLACVVCRQMMVASGNQLVECQECHNLYHRDCHKPQVTDKEANDPRLVWRCARCT [Y54R], 0.116 ± 0.054; under AMEMGLACVVCRQMMVASGNQLVECQECHNLYHRDCHKPQVTDKEANDPRLVWSCARCT [Y54S], 0.04 ± 0.052.

In the case of AMEMGLACVVCRQMMVASGNQLVECQECHNLYHRDCHKPQVTDKEANDPRLVWICARCT [Y54I], the abundance fitness is -0.113 ± 0.082.

AMEMGLACVVCRQMMVASGNQLVECQECHNLYHRDCHKPQVTDKEANDPRLVWHCARCT [Y54H]: the abundance fitness came out at 0.119 ± 0.082. Turning to AMEMGLACVVCRQMMVASGNQLVECQECHNLYHRDCHKPQVTDKEANDPRLVWNCARCT [Y54N], the abundance fitness came out at 0.007 ± 0.081. Turning to AMEMGLACVVCRQMMVASGNQLVECQECHNLYHRDCHKPQVTDKEANDPRLVGYCARCT [W53G], the abundance fitness was -0.27 ± 0.052.

As to AMEMGLACVVCRQMMVASGNQLVECQECHNLYHRDCHKPQVTDKEANDPRLVQYCARCT [W53Q], the abundance fitness is -0.205 ± 0.061. The figure for AMEMGLACVVCRQMMVASGNQLVECQECHNLYHRDCHKPQVTDKEANDPRLVYYCARCT [W53Y] is -0.322 ± 0.16; for AMEMGLACVVCRQMMVASGNQLVECQECHNLYHRDCHKPQVTDKEANDPRLVRYCARCT [W53R] it is -0.147 ± 0.05.

Consider AMEMGLACVVCRQMMVASGNQLVECQECHNLYHRDCHKPQVTDKEANDPRLVHYCARCT [W53H], for which the abundance fitness is -0.266 ± 0.097. Under AMEMGLACVVCRQMMVASGNQLVECQECHNLYHRDCHKPQVTDKEANDPRLVFYCARCT [W53F] stands -0.045 ± 0.098; under AMEMGLACVVCRQMMVASGNQLVECQECHNLYHRDCHKPQVTDKEANDPRLVMYCARCT [W53M], -0.252 ± 0.077.

With AMEMGLACVVCRQMMVASGNQLVECQECHNLYHRDCHKPQVTDKEANDPRLVKYCARCT [W53K], the abundance fitness is -0.146 ± 0.067. AMEMGLACVVCRQMMVASGNQLVECQECHNLYHRDCHKPQVTDKEANDPRLVNYCARCT [W53N]: the abundance fitness is -0.112 ± 0.094. In the case of AMEMGLACVVCRQMMVASGNQLVECQECHNLYHRDCHKPQVTDKEANDPRLVTYCARCT [W53T], the abundance fitness was -0.13 ± 0.071. Under AMEMGLACVVCRQMMVASGNQLVECQECHNLYHRDCHKPQVTDKEANDPRLVCYCARCT [W53C] stands -0.453 ± 0.092; under AMEMGLACVVCRQMMVASGNQLVECQECHNLYHRDCHKPQVTDKEANDPRLVPYCARCT [W53P], -0.302 ± 0.058. As to AMEMGLACVVCRQMMVASGNQLVECQECHNLYHRDCHKPQVTDKEANDPRLVLYCARCT [W53L], the abundance fitness is -0.283 ± 0.049. Under AMEMGLACVVCRQMMVASGNQLVECQECHNLYHRDCHKPQVTDKEANDPRLVVYCARCT [W53V] stands -0.398 ± 0.064; under AMEMGLACVVCRQMMVASGNQLVECQECHNLYHRDCHKPQVTDKEANDPRLVDYCARCT [W53D], -0.104 ± 0.14; under AMEMGLACVVCRQMMVASGNQLVECQECHNLYHRDCHKPQVTDKEANDPRLVAYCARCT [W53A], -0.115 ± 0.064. Take AMEMGLACVVCRQMMVASGNQLVECQECHNLYHRDCHKPQVTDKEANDPRLIWYCARCT [V52I]: the abundance fitness was -0.095 ± 0.057.

In the case of AMEMGLACVVCRQMMVASGNQLVECQECHNLYHRDCHKPQVTDKEANDPRLYWYCARCT [V52Y], the abundance fitness is -0.284 ± 0.087. As for AMEMGLACVVCRQMMVASGNQLVECQECHNLYHRDCHKPQVTDKEANDPRLTWYCARCT [V52T], the abundance fitness came out at 0.034 ± 0.053. For the variant AMEMGLACVVCRQMMVASGNQLVECQECHNLYHRDCHKPQVTDKEANDPRLWWYCARCT [V52W], the abundance fitness was -0.36 ± 0.092. Turning to AMEMGLACVVCRQMMVASGNQLVECQECHNLYHRDCHKPQVTDKEANDPRLPWYCARCT [V52P], the abundance fitness was 0.019 ± 0.052. Under AMEMGLACVVCRQMMVASGNQLVECQECHNLYHRDCHKPQVTDKEANDPRLKWYCARCT [V52K] stands 0.103 ± 0.065; under AMEMGLACVVCRQMMVASGNQLVECQECHNLYHRDCHKPQVTDKEANDPRLAWYCARCT [V52A], 0.036 ± 0.051; under AMEMGLACVVCRQMMVASGNQLVECQECHNLYHRDCHKPQVTDKEANDPRLDWYCARCT [V52D], 0.025 ± 0.061.

With AMEMGLACVVCRQMMVASGNQLVECQECHNLYHRDCHKPQVTDKEANDPRLNWYCARCT [V52N], the abundance fitness is -0.012 ± 0.08. In the case of AMEMGLACVVCRQMMVASGNQLVECQECHNLYHRDCHKPQVTDKEANDPRLMWYCARCT [V52M], the abundance fitness is -0.033 ± 0.055. Turning to AMEMGLACVVCRQMMVASGNQLVECQECHNLYHRDCHKPQVTDKEANDPRLCWYCARCT [V52C], the abundance fitness is -0.009 ± 0.092. Turning to AMEMGLACVVCRQMMVASGNQLVECQECHNLYHRDCHKPQVTDKEANDPRLFWYCARCT [V52F], the abundance fitness is -0.126 ± 0.064. Regarding AMEMGLACVVCRQMMVASGNQLVECQECHNLYHRDCHKPQVTDKEANDPRLRWYCARCT [V52R], the abundance fitness was -0.032 ± 0.046. The figure for AMEMGLACVVCRQMMVASGNQLVECQECHNLYHRDCHKPQVTDKEANDPRLHWYCARCT [V52H] is -0.036 ± 0.076; for AMEMGLACVVCRQMMVASGNQLVECQECHNLYHRDCHKPQVTDKEANDPRLLWYCARCT [V52L] it is -0.018 ± 0.044. With AMEMGLACVVCRQMMVASGNQLVECQECHNLYHRDCHKPQVTDKEANDPRLGWYCARCT [V52G], the abundance fitness was 0.023 ± 0.051. Under AMEMGLACVVCRQMMVASGNQLVECQECHNLYHRDCHKPQVTDKEANDPFLVWYCARCT [R50F] stands -0.126 ± 0.084; under AMEMGLACVVCRQMMVASGNQLVECQECHNLYHRDCHKPQVTDKEANDPWLVWYCARCT [R50W], -0.206 ± 0.093.

The values are drawn from the Human Domainome abundance scans (Beltran et al. 2025).
